Results from the DeepSol protein solubility set.

assay: soluble on expression in E. coli; label from the status in PepcDB or PDB records

| Sequence | soluble on expression in E. coli |
| --- | --- |
| MGSDKIHHHHHHLVGISHDTDQRILEQAMNMIRENGEDQLSLRKLARAIGLTTGAFYKHFATKDALLRAVTQLLSQREEAEMAQVLGQITDPEEKLLVMAAEILERFEADPHLMHFLFFNPAARDVLKVEPGQFGFYDQVIQLIKDVLRKRGITIDPQILFIQLWSFIQGYGLLIDSGITSYDPNLVRKTLKDLLEVSND | not soluble |
| SFELPALPYAKDALAPHISAETIEYHYGKHHQTYVTNLNNLIKGTAFEGKSLEEIIRSSEGGVFNNAAEVWNHTFYWNCLAPNAGGEPTGKVAEAIAASFGSFADFKAQFTDAAIKNFGSGWTWLVKNSDGKLAIVSTSNAGTPLTTDATPLLTVDVWEHAYYIDYRNARPGYLEHFWALVNWEFVAKNLAA | soluble |
| MCAALKRCAYRHKGKIMENTNIVTTEQQAPNTISASNAIFNVQALGQLTAFANLMADSQVTVPAHLAGKPADCMAIVMQAMQWGMNPYAVAQKTHLVNGVLGYEAQLVNAVIASSSAIHGRFHYRYGGDWERCTRTQEITRDKNGKNGKYTVTERVRGWTDEDEIGLFVQVGAILRGESEITWGEPLYLSGVVTRNSPLWVSNPKQQIAYLGVKYWARLYCPEVILGVYSPDEVEQREEREINPAPVQRMSVQEITSEVSTRTSAQESAANVDAVADDLRERIDTASSVDQAKAIRADIESQKALLGTALFTELKNKAVKRYYQVNAQNKVEAVINSIPNPGEPEAAEMFAKAESTLGAAKRHLGDELHDKYRVTLDDMKPEYIG | not soluble |
| MSLRCLVTGATGYVGGRLVPELLDAGHRVRCLARSPDRLRDHPWAGKAEVVRGDVTDADSVARAMEGVDVAYYLVHALGSGDDFEATDRRAARTFAERAAAAGVRRIVYLGGLTPAGVPEGELSPHLRSRTEVGRILLASGVPTTVLRAAVVIGSGSASFEMLRYLTERLPVMVTPSWVHTRIQPVAVRDVLRALVGSATMPREVSRTFDVGGPDILTYREMMERYARVAELPRRLILPVPMLSPGLSSHWVGLVTPVPAAIARPLTESLRHEVVCGENDIVRYVPPPPGYPLGFDDALRLALQRVREARVTTRWSSASVPGAPSDPLPTDPDWAGGSLYTDDRALGVDAPPDALWRVVEGIGGDHGWYSFPLAWAVRGWLDRLVGGVGLRRGRRDAARLRVGDSLDFWRVEEIVPGRLLRLRAEMRLPGLAWLEMYAETDDAGRTRYRQRALFHPHGLAGHAYWWSVSPFHAVVFGGMARNIARAAARAAEGHHHHHH | not soluble |
| MTLPRLILPLLIAAACALGGCAYNPDLGRDQLLIVNDNNLARDGEKAWADALRTSHVSKEPRKNARVQAVGQRVIVAAGLAGRPWEYAVFLEEAPNAFVLPGGYVGVTVGLLSLVENDDQLAAVIGHEAGHVVARHAAERVSQETTSKVLLGIAKAAAGGTEFGKLLKDHGEDATRYGLLLPFSRKQELEADKLGVDFMQRAGYRPREAVKLWRNMQALDGGKSGGDLGSTHPSDAVRIQELERYLASKGWLEHHHHHH | not soluble |
| MPSTDFADIPAAKKMKIDTCVLRFAKLTENALEPVRGSAKAAGVDLRSAYDVVVPARGKAIVKTDLQVQVPEGSYGRVAPRSGLAVKNFIDVGAGVVDEDYRGNLGVVLFNHSDVDFEVKHGDRIAQFICERIFYPQLVMVDKLEDTERGEAGFGSTGVK | soluble |
| MGTHSGHERNGESARGGALQRLERRLAAAWAEQDAYQIEQLAGMIYDRLVRSDPSAAATVLEQNAHRLAVAGKPAEAAELATRLIRHWRELEQRPFYLARLQQMVLEPLQALSGVEAARARTMVLEAVLAWKRASATVDTEEAAPAELAPVQDALVDAYVLCGEWARAQYQVVCRGGPAERDLAFIDEQLGPHLANDVERMLARTRLVLFYVLAGNLKAGRALVEEIQRKHPTAPMTNFVVILMQVLERARNVDSSKRRLLRNFCDDLKRVYHWAFSLDPELDAMLDDVLKAQGL | not soluble |
| MTGYACNHPNIYQSCNCQSFCQPYTHPHEMYYHHGYGCNGHCLDHQESMCEEDDECGMKKRKKHRKKNKKKKNKKKFRFSDEEDDEEKVAHHKKKPIEEDDDEFPLPPNSEEVAEASKSSKKEEDWEDDDKWERKFVSQTTTPAPRQAASGGGLGGLGLGNGGLFGISSGVGVGIPGVGPIGVSSGLGIGK | not soluble |
| MSLTARSVVLSVLLGAHPAWATASELIQLTADFGIKETTLRVALTRMVGAGDLVRSADGYRLSDRLLARQRRQDEAMRPRTRAWHGNWHMLIVTSIGTDARTRAALRTCMHHKRFGELREGVWMRPDNLDLDLESDVAARVRMLTARDEAPADLAGQLWDLSGWTEAGHRLLGDMAAATDMPGRFVVAAAMVRHLLTDPMLPAELLPADWPGAGLRAAYHDFATAMAKRRDATQLLEVTEGHHHHHH | soluble |
